Series [1] has as its target transient receptor potential vanilloid 1 (TRPV1), rat, in primary neonatal cardiomyocytes (rat) (UniProt O35433). As to the kind of experiment: cell-based or functional assay.

The source of these data is patent US20190085040A1.

Sequence of transient receptor potential vanilloid 1 (TRPV1), rat, in primary neonatal cardiomyocytes (rat) (O35433 whole entry): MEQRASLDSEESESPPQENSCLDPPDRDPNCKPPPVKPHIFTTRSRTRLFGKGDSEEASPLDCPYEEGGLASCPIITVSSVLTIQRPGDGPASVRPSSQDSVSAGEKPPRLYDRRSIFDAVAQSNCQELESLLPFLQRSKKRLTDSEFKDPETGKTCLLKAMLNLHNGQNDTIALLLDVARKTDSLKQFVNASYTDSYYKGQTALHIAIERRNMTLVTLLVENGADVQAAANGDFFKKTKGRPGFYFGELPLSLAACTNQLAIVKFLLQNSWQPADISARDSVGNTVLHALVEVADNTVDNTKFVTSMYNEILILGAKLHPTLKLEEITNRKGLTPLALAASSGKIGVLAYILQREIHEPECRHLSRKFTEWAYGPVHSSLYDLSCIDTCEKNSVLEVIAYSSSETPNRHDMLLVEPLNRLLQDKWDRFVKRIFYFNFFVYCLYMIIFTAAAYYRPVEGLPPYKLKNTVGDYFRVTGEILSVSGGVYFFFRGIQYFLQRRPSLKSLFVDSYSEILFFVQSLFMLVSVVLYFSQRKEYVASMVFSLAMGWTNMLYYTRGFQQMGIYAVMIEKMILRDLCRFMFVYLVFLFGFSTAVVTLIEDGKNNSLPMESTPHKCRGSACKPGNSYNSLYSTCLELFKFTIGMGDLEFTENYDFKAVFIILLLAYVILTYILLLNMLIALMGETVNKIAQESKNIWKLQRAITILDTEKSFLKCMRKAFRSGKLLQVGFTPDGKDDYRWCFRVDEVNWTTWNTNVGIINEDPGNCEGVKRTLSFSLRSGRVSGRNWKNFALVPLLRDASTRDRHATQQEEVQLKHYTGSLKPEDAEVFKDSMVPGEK

With recombinant calcineurin, the “calcineurin activity by free phosphate release from a calcineurin substrate (colorimetric, peptide at 10 µM, against TAT at 10 µM)” value with V1-cal is given as “In comparison to TAT, V1-cal reduced the ability for calcineurin to dephosphorylate a calcineurin substrate as measured by free phosphate release in vitro”.

Take “calcineurin, endogenous in rat primary neonatal cardiomyocytes (enzyme)”: in series [1], the fold decrease in negative change in mitochondrial membrane potential caused by capsaicin (1 µM) in primary neonatal cardiomyocytes, with V1-cal (1 µM) given 10 minutes before turned out to be 10 fold.
